Measured values taken from US20240117018A1.

What was measured:
Test in all cases: cell-based or functional assay
[1] = biological target: HIV-1 Env of pseudovirus 1006_11_C3_1601 (HIV-1)
[2] = biological target: HIV-1 Env of pseudovirus 1012_11_TC21_3257 (HIV-1)
[3] = biological target: HIV-1 Env of pseudovirus 249M B10 (HIV-1)
[4] = biological target: HIV-1 Env of pseudovirus 3415.v1.c1 (HIV-1)
[5] = biological target: HIV-1 Env of pseudovirus 62357_14_D3_4589 (HIV-1)
[6] = biological target: HIV-1 Env of pseudovirus 6240_08_TA5_4622 (HIV-1)
[7] = biological target: HIV-1 Env of pseudovirus 6535.3 (HIV-1)
[8] = biological target: HIV-1 Env of pseudovirus 7030102001E5(Rev-) (HIV-1)
[9] = biological target: HIV-1 Env of pseudovirus AC10.0.29 (HIV-1)
[10] = biological target: HIV-1 Env of pseudovirus CNE17 (HIV-1)
[11] = biological target: HIV-1 Env of pseudovirus CNE20 (HIV-1)
[12] = biological target: HIV-1 Env of pseudovirus CNE53 (HIV-1)
[13] = biological target: HIV-1 Env of pseudovirus Ce0682_E4 (HIV-1)
[14] = biological target: HIV-1 Env of pseudovirus Ce2010_F5 (HIV-1)
[15] = biological target: HIV-1 Env of pseudovirus Ce2060_G9 (HIV-1)
[16] = biological target: HIV-1 Env of pseudovirus Du156.12 (HIV-1)
[17] = biological target: HIV-1 Env of pseudovirus Du172.17 (HIV-1)
[18] = biological target: HIV-1 Env of pseudovirus HIV-001428-2.42 (HIV-1)
[19] = biological target: HIV-1 Env of pseudovirus HIV-16055-2.3 (HIV-1)
[20] = biological target: HIV-1 Env of pseudovirus Q23.17 (HIV-1)
[21] = biological target: HIV-1 Env of pseudovirus Q259.d2.17 (HIV-1)
[22] = biological target: HIV-1 Env of pseudovirus Q461.e2 (HIV-1)
[23] = biological target: HIV-1 Env of pseudovirus Q769.d22 (HIV-1)
[24] = biological target: HIV-1 Env of pseudovirus RHPA4259.7 (HIV-1)
[25] = biological target: HIV-1 Env of pseudovirus SC422661.8 (HIV-1)
[26] = biological target: HIV-1 Env of pseudovirus TRJO4551.58 (HIV-1)
[27] = biological target: HIV-1 Env of pseudovirus TRO.11 (HIV-1)
[28] = biological target: HIV-1 Env of pseudovirus WEAU_d15_410_787 (HIV-1)
[29] = biological target: HIV-1 Env of pseudovirus ZM135M.PL10a (HIV-1)
[30] = biological target: HIV-1 Env of pseudovirus ZM214M.PL15 (HIV-1)
[31] = biological target: HIV-1 Env of pseudovirus ZM233M.PB6 (HIV-1)
[32] = biological target: HIV-1 Env of pseudovirus ZM247v1(Rev-) (HIV-1)
[33] = biological target: HIV-1 Env of pseudovirus ZM249M.PL1 (HIV-1)
[34] = biological target: HIV-1 Env of pseudovirus ZM53M.PB12 (HIV-1)
[35] = biological target: HIV-1 Env of pseudovirus CNE5 (HIV-1)
[36] = biological target: HIV-1 Env of pseudovirus CNE8 (HIV-1)
[37] = biological target: HIV-1 Env of pseudovirus 0260.v5.c36 (HIV-1)
[38] = biological target: HIV-1 Env of pseudovirus T250-4 (HIV-1)

## 3BNC117 (antibody)
[1]
  IC50: 0.03 µg/mL
  IC80: 0.1 µg/mL
[2]
  IC50: 0.02 µg/mL
  IC80: 0.07 µg/mL
[3]
  IC50: 0.1 µg/mL
  IC80: 0.4 µg/mL
[4]
  IC50: 0.17 µg/mL
  IC80: 0.47 µg/mL
[5]
  IC50: 0.06 µg/mL
  IC80: 0.26 µg/mL
[6]
  IC50: 0.33 µg/mL
  IC80: 1.17 µg/mL
[7]
  IC50: 0.55 µg/mL
  IC80: 2.44 µg/mL
[8]
  IC50: 0.29 µg/mL
  IC80: 1.44 µg/mL
[9]
  IC50: 13.8 µg/mL
  IC80: > 50 µg/mL
[10]
  IC50: 5.76 µg/mL
  IC80: 43 µg/mL
[11]
  IC50: > 50 µg/mL
  IC80: > 50 µg/mL
[12]
  IC50: 0.08 µg/mL
  IC80: 0.99 µg/mL
[13]
  IC50: 0.03 µg/mL
  IC80: 0.15 µg/mL
[14]
  IC50: 0.05 µg/mL
  IC80: 0.21 µg/mL
[15]
  IC50: 0.24 µg/mL
  IC80: 0.81 µg/mL
[16]
  IC50: 0.02 µg/mL
  IC80: 0.08 µg/mL
[17]
  IC50: 1.19 µg/mL
  IC80: 8.9 µg/mL
[18]
  IC50: 0.003 µg/mL
  IC80: 0.02 µg/mL
[19]
  IC50: 5.6 µg/mL
  IC80: > 50 µg/mL
[20]
  IC50: 0.005 µg/mL
  IC80: 0.02 µg/mL
[21]
  IC50: 0.01 µg/mL
  IC80: 0.05 µg/mL
[22]
  IC50: 0.03 µg/mL
  IC80: 0.09 µg/mL
[23]
  IC50: 0.01 µg/mL
  IC80: 0.04 µg/mL
[24]
  IC50: < 0.09 µg/mL
  IC80: < 0.09 µg/mL
[25]
  IC50: 0.02 µg/mL
  IC80: 0.08 µg/mL
[26]
  IC50: 0.05 µg/mL
  IC80: 0.19 µg/mL
[27]
  IC50: < 0.09 µg/mL
  IC80: < 0.09 µg/mL
[28]
  IC50: 0.05 µg/mL
  IC80: 0.19 µg/mL
[29]
  IC50: 0.03 µg/mL
  IC80: 0.13 µg/mL
[30]
  IC50: 0.06 µg/mL
  IC80: 0.52 µg/mL
[31]
  IC50: 0.13 µg/mL
  IC80: 0.85 µg/mL
[32]
  IC50: > 50 µg/mL
  IC80: > 50 µg/mL
[33]
  IC50: 0.03 µg/mL
  IC80: 0.11 µg/mL
[34]
  IC50: 0.21 µg/mL
  IC80: 0.85 µg/mL

## 8ANC195 (antibody)
[1]
  IC50: 0.43 µg/mL
  IC80: 1.98 µg/mL
[2]
  IC50: > 50 µg/mL
  IC80: > 50 µg/mL
[3]
  IC50: > 50 µg/mL
  IC80: > 50 µg/mL
[4]
  IC50: 17.7 µg/mL
  IC80: 17.7 µg/mL
[5]
  IC50: > 50 µg/mL
  IC80: > 50 µg/mL
[6]
  IC50: > 50 µg/mL
  IC80: > 50 µg/mL
[7]
  IC50: 0.2 µg/mL
  IC80: 0.91 µg/mL
[8]
  IC50: 0.86 µg/mL
  IC80: 8.32 µg/mL
[9]
  IC50: 0.88 µg/mL
  IC80: 7 µg/mL
[10]
  IC50: 2.59 µg/mL
  IC80: 11.1 µg/mL
[11]
  IC50: 0.5 µg/mL
  IC80: 3.19 µg/mL
[12]
  IC50: > 50 µg/mL
  IC80: > 50 µg/mL
[13]
  IC50: 0.2 µg/mL
  IC80: 1.29 µg/mL
[14]
  IC50: > 50 µg/mL
  IC80: > 50 µg/mL
[15]
  IC50: 6.2 µg/mL
  IC80: > 50 µg/mL
[16]
  IC50: 0.22 µg/mL
  IC80: 1.56 µg/mL
[17]
  IC50: > 30 µg/mL
  IC80: > 30 µg/mL
[18]
  IC50: > 50 µg/mL
  IC80: > 50 µg/mL
[19]
  IC50: 15.3 µg/mL
  IC80: > 50 µg/mL
[20]
  IC50: 2.55 µg/mL
  IC80: 2.55 µg/mL
[21]
  IC50: > 50 µg/mL
  IC80: > 50 µg/mL
[22]
  IC50: 0.63 µg/mL
  IC80: 2.51 µg/mL
[23]
  IC50: 0.26 µg/mL
  IC80: 1.2 µg/mL
[24]
  IC50: 0.34 µg/mL
  IC80: 1.56 µg/mL
[25]
  IC50: 0.29 µg/mL
  IC80: 4.67 µg/mL
[26]
  IC50: 0.19 µg/mL
  IC80: 1.17 µg/mL
[27]
  IC50: 0.18 µg/mL
  IC80: 0.89 µg/mL
[28]
  IC50: > 50 µg/mL
  IC80: > 50 µg/mL
[29]
  IC50: > 50 µg/mL
  IC80: > 50 µg/mL
[30]
  IC50: 0.91 µg/mL
  IC80: 12.3 µg/mL
[31]
  IC50: 7.39 µg/mL
  IC80: 43.5 µg/mL
[32]
  IC50: 3.41 µg/mL
  IC80: 25.1 µg/mL
[33]
  IC50: > 50 µg/mL
  IC80: > 50 µg/mL
[34]
  IC50: > 30 µg/mL
  IC80: > 30 µg/mL

## 10-1074 (antibody)
[35]
  IC50 neutralization (TZM.bl): > 50 µg/mL
  IC80 neutralization (TZM.bl): > 50 µg/mL
[36]
  IC50 neutralization (TZM.bl): > 50 µg/mL
  IC80 neutralization (TZM.bl): > 50 µg/mL

## 10E8 (antibody)
[35]
  IC50 neutralization (TZM.bl): 1.41 µg/mL
  IC80 neutralization (TZM.bl): 9.64 µg/mL

## N49P9 (antibody)
[37]
  neutralization IC50: 0.466 µg/mL
  neutralization IC80: 1.85 µg/mL
  neutralization MPI: 100
[4]
  neutralization IC50: 0.137 µg/mL
  neutralization IC80: 0.502 µg/mL
  neutralization MPI: 100
[36]
  neutralization IC50: 0.056 µg/mL
  neutralization IC80: 0.26 µg/mL
  neutralization MPI: 100
[38]
  neutralization IC50: > 50 µg/mL
  neutralization IC80: > 50 µg/mL
  neutralization MPI: 25
